Source: paper PMC3927877 (Nature Communications, 2013)
Changes are numbered by the printed parent chain. Numbers in names are those of the source. Values belong to the binder of their own block, whether it stands above or below them.

B1: STIM1 CC1_([TM-distal])-CC2 A380R (domain or fragment, human, UniProt Q13586 312-387, looked up)
chain: SRQKYAEEELEQVREALRKAEKELESHSSWYAPEALQKWLQLTHEVEVQYYNIKKQNAEKQLLVAKEGREKIKKKR
B2: STIM1 CC1_([TM-distal])-CC2 K382E/K384E/K385E/K386E (domain or fragment, human, UniProt Q13586 312-387, looked up)
chain: B1 chain with R69A, K71E, K73E, K74E, K75E
B3: STIM1 CC1_([TM-distal])-CC2 E318Q/E319Q/E320Q/E322Q (domain or fragment, human, UniProt Q13586 312-387, looked up)
chain: B1 chain with E7Q, E8Q, E9Q, E11Q, R69A
B4: STIM1 CC1_([TM-distal])-CC2 I383R (domain or fragment, human, UniProt Q13586 312-387, looked up)
chain: B1 chain with R69A, I72R

Key:
[1] = target: B1; assay: pull-down
[2] = target: STIM1 CC1_([TM-distal])-CC2 V324P (human, UniProt Q13586 312-387, V324P); assay: pull-down
[3] = target: B3; assay: pull-down
[4] = target: B4; assay: pull-down
[5] = target: STIM1 CC1_([TM-distal])-CC2 (residues 312-387) (human, UniProt Q13586 312-387); assay: NMR titration
SEC-MALS = target: the molecule itself; assay: SEC-MALS

STIM1 CC1_([TM-distal])-CC2 V324P, sequence (Q13586 312-387 V324P): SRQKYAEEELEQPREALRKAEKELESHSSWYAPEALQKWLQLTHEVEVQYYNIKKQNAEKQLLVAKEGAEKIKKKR

- binding result [1]: binds
- binding result [2]: binds
- binding result [3]: binds
- binding result [4]: binds
Binder: ELNELAEFARLQDQLDHRGDH (domain or fragment, human, UniProt Q96D31 272-292, looked up) [MBP-Orai1 C_(272–292)]

- Kd [5]: 100 to 600 µM
Binder: ELNELAEFARLQDQLDHRGDH (peptide, UniProt Q96D31 272-292, looked up) [Orai1 C_(272–292)]

Binder: B1
- binding result (SEC-MALS): binds

Binder: B2
- binding result (SEC-MALS): binds

Binder: B3
- binding result (SEC-MALS): binds

Binder: B4
- binding result (SEC-MALS): binds
